Biological target: strep-HA3/B (Clostridium botulinum serotype B strain Okra)
Assay: SEC; […], PBS pH 6.0, 0.75 mL/min, […]

## strep-HA3/B (domain or fragment)
  stoichiometry N: 3
